T1: GCM N243 (MBP fusion) (Drosophila, UniProt Q27403 SEQ:1-243)
T1 chain: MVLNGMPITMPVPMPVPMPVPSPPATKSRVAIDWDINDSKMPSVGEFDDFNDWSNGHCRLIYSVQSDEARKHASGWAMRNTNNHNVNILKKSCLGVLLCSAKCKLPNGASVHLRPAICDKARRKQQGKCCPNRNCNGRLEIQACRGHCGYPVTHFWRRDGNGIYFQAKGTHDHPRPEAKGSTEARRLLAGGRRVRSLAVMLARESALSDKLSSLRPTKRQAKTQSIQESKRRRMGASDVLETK

T2: hGCMa N-terminal fragment (Homo sapiens, UniProt Q9NP62 SEQ:1-171)
T2 chain: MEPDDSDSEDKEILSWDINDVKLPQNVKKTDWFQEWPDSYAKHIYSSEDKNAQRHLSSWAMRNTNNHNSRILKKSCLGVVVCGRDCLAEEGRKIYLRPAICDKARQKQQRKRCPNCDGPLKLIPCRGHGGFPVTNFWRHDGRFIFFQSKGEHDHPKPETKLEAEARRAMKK

B1: competitor b without GCM site (dsDNA)
DNA 1: TGTGTGGAATTGTGAGCGGATATACTAATTTGTTAGGTTTTCCCAGTCACGACG
DNA 2: CGTCGTGACTGGGAAAACCTAACAAATTAGTATATCCGCTCACAATTCCACACA
B2: competitor a with GCM site (dsDNA)
DNA 1: TGTGTGGAATTGTGAGCGGACCTACCCGCATTACGGGTTTTCCCAGTCACGACG
DNA 2: CGTCGTGACTGGGAAAACCCGTAATGCGGGTAGGTCCGCTCACAATTCCACACA

Tests used:
GCM N243 (MBP fusion) [1] = molecular target: T1, GCM N243 (MBP fusion); assay: competition; no competition; conditions: tags: MBP fusion (pMAL, E. coli)
[2] = molecular target: T2, hGCMa N-terminal fragment; assay: competition; results stated similar to those of GCM
Description: Gel shift assays and competition assays were carried out in the same manner as above by using proteins obtained by causing expression of DNA fragments of up to the 171-st amino acid residue of hGCMa, giving results similar to those of GCM.

GCM N243 (MBP fusion) [3] = molecular target: T1, GCM N243 (MBP fusion); assay: competition; dose-dependent competition of labeled 200 bp repo fragment, 1-1000x; conditions: tags: MBP fusion (pMAL, E. coli)

Binder	binding result (GCM N243 (MBP fusion) [1])	binding result [2]	binding result (GCM N243 (MBP fusion) [3])
B1	no binding	no binding	–
B2	–	binds	binds
